Data published in patent US20100256217.
Positions count from the first letter of the chain named.

T1: recombinant WNV capsid protein with an N-terminal hexa-histidine tag, expressed in E. coli from pQE30, Q9Q6P4
T1 chain: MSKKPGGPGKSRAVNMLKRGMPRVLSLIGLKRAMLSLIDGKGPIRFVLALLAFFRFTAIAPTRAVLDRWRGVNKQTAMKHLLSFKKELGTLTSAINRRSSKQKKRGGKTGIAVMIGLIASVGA

T2: recombinant WNV capsid mutant rC(S36A), N-terminal hexa-histidine tag, expressed in E. coli from pQE30, Q9Q6P4
T2 chain: T1 chain with S36A

B1: recombinant CK2 (whole enzyme, Biomol) (protein)
chain 1: MSGPVPSRARVYTDVNTHRPREYWDYESHVVEWGNQDDYQLVRKLGRGKYSEVFEAINITNNEKVVVKILKPVKKKKIKREIKILENLRGGPNIITLADIVKDPVSRTPALVFEHVNNTDFKQLYQTLTDYDIRFYMYEILKALDYCHSMGIMHRDVKPHNVMIDHEHRKLRLIDWGLAEFYHPGQEYNVRVASRYFKGPELLVDYQMYDYSLDMWSLGCMLASMIFRKEPFFHGHDNYDQLVRIAKVLGTEDLYDYIDKYNIELDPRFNDILGRHSRKRWERFVHSENQHLVSPEALDFLDKLLRYDHQSRLTAREAMEHPYFYTVVKDQARMGSSSMPGGSTPVSSANMMSGISSVPTPSPLGPLAGSPVIAAANPLGMPVPAAAGAQQ
chain 2: not shown
B2: purified recombinant CK2α subunit protein (Biomol) (protein)
chain: B1 chain 1

Key:
[1] = target: T1, recombinant WNV capsid protein with an …
[2] = target: CKII-Pep, commercial CK2 substrate peptide
[3] = target: T2, recombinant WNV capsid mutant rC(S36A), …

Row | Protein | in vitro phosphorylation (32P-ATP kinase assay, autoradiography) [1] | dot-blot kinase assay [2] | in vitro phosphorylation (CK2 kinase assay, autoradiography) [3] | in vitro phosphorylation (kinase assay with a single recombinant subunit) [1]
1 | B1 | purified fractions yielded was phosphorylated by CK2 | Only Cp(30-48) and CK-II-Pep peptides reacted positively to CK2 assay | the phosphorylation signal was totally absent from C(S36A) while the wild rC still was labeled in the in vitro assay | 
2 | B2 |  |  |  | Neither of the subunits was able to phosphorylate the protein by themselves
